The results in this text go back to article PMC8892516, “Intragenic suppressors unravel the role of the SCREAM ACT-like domain for bHLH partner selectivity in stomatal development” (Proceedings of the National Academy of Sciences of the …, 2022).

By Kd is commonly meant the equilibrium constant for the complex coming apart. In general, koff refers to a measure of how fast the partners let go of each other. The kon is a measure of how fast the partners come together.

For test [1], the target named is GST-fused SCRMΔC (1-404) (Arabidopsis thaliana) (UniProt Q9LSE2). Description: BLI; as a1, samples incubated 30 min with a 1:4 molar ratio of the synthetic E-box repeat fragment; analyte 200-3.125 nM or 1000-25 nM. Background: BLI is a label-free optical method that tracks binding on a fibre tip over time.
The target of test [2] is T1, GST-fused SCRM (1-494) (Arabidopsis thaliana, UniProt Q9LSE2 1-494).
T1 construct: SCREAM (SCRM, also known as ICE1), Arabidopsis thaliana, At3G26744, residues 1-494; pGEX-4T-1 with thrombin site; GST kept because the protein was loaded on anti-GST probes for BLI; also called SCREAM; ICE1; source: E. coli BL21, purified (glutathione agarose resin); not shown: GST, N-terminal, kept
T1 sequence (looked up): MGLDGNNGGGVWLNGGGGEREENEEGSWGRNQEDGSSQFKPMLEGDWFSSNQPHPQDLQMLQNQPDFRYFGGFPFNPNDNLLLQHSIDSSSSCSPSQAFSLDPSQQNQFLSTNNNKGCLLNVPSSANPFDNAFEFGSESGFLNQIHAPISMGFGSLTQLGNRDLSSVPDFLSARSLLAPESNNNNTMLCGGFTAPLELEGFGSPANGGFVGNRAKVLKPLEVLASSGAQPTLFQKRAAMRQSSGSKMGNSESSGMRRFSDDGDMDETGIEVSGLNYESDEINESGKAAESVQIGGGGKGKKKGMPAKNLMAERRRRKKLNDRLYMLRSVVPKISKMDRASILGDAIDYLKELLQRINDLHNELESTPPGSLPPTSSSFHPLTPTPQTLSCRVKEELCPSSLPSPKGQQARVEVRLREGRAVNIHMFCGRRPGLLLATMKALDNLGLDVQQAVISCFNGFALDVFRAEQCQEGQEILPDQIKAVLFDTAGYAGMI
Described as above. The note with it: both partners purified.

The target of test [3] is GST-fused SCRMΔC (1-404) (Arabidopsis thaliana) (UniProt Q9LSE2). Kind of test: BLI; as a1, samples incubated 30 min with a 1:4 molar ratio of the TMM promoter fragment containing the E-box; analyte 200-3.125 nM or 1000-25 nM.
Test [4] deals with T1, GST-fused SCRM (1-494). The description is as above. The following applies: both partners purified.
In test [5] the target is T1, GST-fused SCRM (1-494). Description: BLI; as a1, samples incubated 30 min with a 1:4 molar ratio of the TMM promoter fragment containing a mutant E-box (control); analyte 200-3.125 nM or 1000-25 nM. The following applies: both partners purified.
The target in test [6] is T1, GST-fused SCRM (1-494). Kind of test: BLI; Octet Red96; anti-GST probes loaded with 500 nM GST-SCRM or GST-SCRMΔC; SPCH/MUTE/FAMA as analyte at 200-3.12 nM; 30 °C; 1x PBS, 0.02% Tween 20; no DNA; 1:1 model for kon, koff and KD, steady-state analysis for KD (SS). The note with it: both partners purified.
In test [7] the target is T2, GST-fused SCRMΔC (1-404) (Arabidopsis thaliana, UniProt Q9LSE2 1-404).
T2 construct: SCREAM (SCRM, ICE1), Arabidopsis thaliana, At3G26744, residues 1-404 (lacks the C-terminal ACTL domain); pGEX-4T-1; GST kept because the protein was loaded on anti-GST probes for BLI; also called SCRM1ΔC; source: E. coli BL21, purified (glutathione agarose resin); not shown: GST, N-terminal, kept
T2 sequence (looked up): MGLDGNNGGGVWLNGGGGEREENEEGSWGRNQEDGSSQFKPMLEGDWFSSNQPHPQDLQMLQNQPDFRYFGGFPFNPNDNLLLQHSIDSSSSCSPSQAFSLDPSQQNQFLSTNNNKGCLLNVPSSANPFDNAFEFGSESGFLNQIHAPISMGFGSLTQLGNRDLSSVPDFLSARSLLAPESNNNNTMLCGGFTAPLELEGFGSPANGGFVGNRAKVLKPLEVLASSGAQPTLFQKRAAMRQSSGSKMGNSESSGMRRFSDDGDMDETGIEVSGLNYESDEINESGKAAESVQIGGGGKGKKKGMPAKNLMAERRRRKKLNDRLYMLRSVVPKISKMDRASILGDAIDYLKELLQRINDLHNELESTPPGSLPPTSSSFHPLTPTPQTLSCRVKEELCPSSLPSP
Kind of test: BLI; as a1, samples incubated 30 min with a 1:4 molar ratio of the synthetic E-box repeat fragment; analyte 200-3.125 nM or 1000-25 nM. The note with it: both partners purified.

The target of test [8] is T2, GST-fused SCRMΔC (1-404). Kind of test: BLI; as a1, samples incubated 30 min with a 1:4 molar ratio of the TMM promoter fragment containing the E-box; analyte 200-3.125 nM or 1000-25 nM. The note with it: both partners purified.
The target of test [9] is T2, GST-fused SCRMΔC (1-404). Description: BLI; as a1, samples incubated 30 min with a 1:4 molar ratio of the TMM promoter fragment containing a mutant E-box (control); analyte 200-3.125 nM or 1000-25 nM. The following applies: both partners purified.
Test [10] deals with T3, SCRMΔC (1-404), GST removed (Arabidopsis thaliana, UniProt Q9LSE2 1-404).
T3 construct: SCREAM (SCRM, ICE1), Arabidopsis thaliana, At3G26744, residues 1-404 (lacks the C-terminal ACTL domain); Used for ITC; the methods tell thrombin cleavage of the GST-fused proteins in general, not for ITC by name; also called SCRM1ΔC; source: E. coli BL21, purified (glutathione resin, thrombin, Superdex-200); not shown: GST, N-terminal, cleaved
T3 sequence (looked up): T2 sequence (looked up)
Description: ITC; Malvern PEAQ-ITC; 40 µM SCRM/SCRMΔC injected into 4 µM SPCH/MUTE/FAMA; PBS, pH 7.2 (Table S1; methods: pH 7.4); 25 °C; single binding site model; means of two experiments. The note with it: both partners purified.

In test [11] the target is T2, GST-fused SCRMΔC (1-404). Kind of test: BLI; Octet Red96; anti-GST probes loaded with 500 nM GST-SCRM or GST-SCRMΔC; SPCH/MUTE/FAMA as analyte at 200-3.12 nM; 30 °C; 1x PBS, 0.02% Tween 20; no DNA; 1:1 model for kon, koff and KD, steady-state analysis for KD (SS). The following applies: both partners purified.

B1: MUTE (1-202) (natural protein, Arabidopsis thaliana, UniProt Q9M8K6 1-202, looked up)
chain: MSHIAVERNRRRQMNEHLKSLRSLTPCFYIKRGDQASIIGGVIEFIKELQQLVQVLESKKRRKTLNRPSFPYDHQTIEPSSLGAATTRVPFSRIENVMTTSTFKEVGACCNSPHANVEAKISGSNVVLRVVSRRIVGQLVKIISVLEKLSFQVLHLNISSMEETVLYFFVVKIGLECHLSLEELTLEVQKSFVSDEVIVSTN
notes: MUTE, Arabidopsis thaliana, residues 1-202; MUTE (1-202) was made both as a GST fusion (pGEX-4T-1, thrombin-cleavable) and with an N-terminal His tag (pET28a); also called MUTE-HIS; MUTE-histag; source: E. coli BL21, purified (Ni-NTA or glutathione resin, Superdex-200)
For B1, the Kd in test [1] was determined as 545 nM; in test [2] it was 5.1 ± 0.3 nM; in test [3], 565 nM; in [4], 7.3 ± 0.2 nM; in test [5] it was 11.1 ± 0.8 nM; in test [6], 6.1 ± 0.5 nM. Also, the koff in test [1] came to 0.0017 s⁻¹; in test [2], 0.000285 s⁻¹; in [3], 0.0016 s⁻¹; in test [4], 0.000286 s⁻¹; in test [5], 0.00023 s⁻¹; in [6], 0.000147 s⁻¹. For the same molecule, the kon in test [1] was found to be 3100 M⁻¹ s⁻¹; in test [2], 56200 M⁻¹ s⁻¹; in [3] it was 2850 M⁻¹ s⁻¹; in test [4], 39200 M⁻¹ s⁻¹; in test [5], 20800 M⁻¹ s⁻¹; in [6], 24200 M⁻¹ s⁻¹.

B2: FAMA (ΔNFAMA) (domain or fragment)
chain: ESQRMTHIAVERNRRKQMNEHLRVLRSLMPGSYVQRGDQASIIGGAIEFVRELEQLLQCLESQKRRRILGETGRDMTTTTTSSSSPITTVANQAQPLIITGNVTELEGGGGLREETAENKSCLADVEVKLLGFDAMIKILSRRRPGQLIKTIAALEDLHLSILHTNITTMEQTVLYSFNVKITSETRFTAEDIASSIQQIFSFIHANTNISGSSNLGNIVFT
modifications: Limits not printed. Start set by analogy with the printed ΔNSPCH 98-364 (one residue before the annotated bHLH). Runs to the native C-terminus. Tag or fusion carrier omitted.
In the case of B2, the equilibrium dissociation constant (Kd) in test [2] was 8.5 ± 0.7 nM; in [7], 59.1 ± 1.3 nM; in test [4], 9.2 ± 0.3 nM; in test [8], 68.3 ± 1.4 nM; in [5], 15.5 ± 0.6 nM; in test [9] it was 85 ± 1.8 nM. Moreover, the values for the dissociation constant (Kd) in [10], in test [6] and in [11] were 68.1 ± 5.2 nM, 7.2 ± 0.5 nM and 55.1 ± 1.3 nM, respectively. The koff in test [2] is 0.000367 s⁻¹; in [7], 0.00023 s⁻¹; in test [4], 0.000395 s⁻¹; in test [8], 0.000263 s⁻¹; in [5] it was 0.000282 s⁻¹; in [9], 0.000221 s⁻¹. Moreover, the koff worked out at 0.000159 s⁻¹ in [6] and 0.00016 s⁻¹ in test [11]. The kon was 43200 M⁻¹ s⁻¹ in test [2]; 3910 M⁻¹ s⁻¹ in test [7]; 43200 M⁻¹ s⁻¹ in test [4]; 3910 M⁻¹ s⁻¹ in test [8]; 18200 M⁻¹ s⁻¹ in test [5]; 2610 M⁻¹ s⁻¹ in [9]. Besides, the kon worked out at 22200 M⁻¹ s⁻¹ in [6] and 2910 M⁻¹ s⁻¹ in test [11].

B3: SPCH (ΔNSPCH, 98-364) (domain or fragment, Arabidopsis thaliana, UniProt Q700C7 98-364, looked up)
chain: GQQKMSHVTVERNRRKQMNEHLTVLRSLMPCFYVKRGDQASIIGGVVEYISELQQVLQSLEAKKQRKTYAEVLSPRVVPSPRPSPPVLSPRKPPLSPRINHHQIHHHLLLPPISPRTPQPTSPYRAIPPQLPLIPQPPLRSYSSLASCSSLGDPPPYSPASSSSSPSVSSNHESSVINELVANSKSALADVEVKFSGANVLLKTVSHKIPGQVMKIIAALEDLALEILQVNINTVDETMLNSFTIKIGIECQLSAEELAQQIQQTFC
notes: the only recombinant SPCH with bHLH domain that the methods list is ΔNSPCH (98-364); source: E. coli BL21, purified (glutathione resin, thrombin, Superdex-200); not shown: GST, N-terminal, cleaved
Regarding B3, the dissociation constant Kd in [2] amounted to 7.2 ± 0.4 nM; in test [7], 38.1 ± 1.9 nM; in test [4] it was 3.9 ± 0.3 nM; in [8], 49 ± 1.3 nM; in test [5], 6.8 ± 0.5 nM; in [9], 78.2 ± 1.2 nM. Also, the Kd in [10] stood at 61.1 ± 4.2 nM; in test [6], 5.8 ± 0.5 nM; in test [11] it was 59.1 ± 1.3 nM. Besides, the off-rate (koff) in test [2] was determined as 0.000354 s⁻¹; in test [7], 0.000184 s⁻¹; in test [4], 0.000153 s⁻¹; in test [8] it was 0.000208 s⁻¹; in test [5] it was 0.000144 s⁻¹; in [9] it was 0.000183 s⁻¹. Further, the koff came to 0.000111 s⁻¹ in [6] and 0.00012 s⁻¹ in test [11]. The association rate constant (kon) was 49200 M⁻¹ s⁻¹ in test [2]; 4850 M⁻¹ s⁻¹ in test [7]; 39200 M⁻¹ s⁻¹ in test [4]; 4250 M⁻¹ s⁻¹ in test [8]; 21200 M⁻¹ s⁻¹ in test [5]; 2350 M⁻¹ s⁻¹ in test [9]. Besides, the results for the on-rate constant (kon) in test [6] and in [11] were 19200 M⁻¹ s⁻¹ and 2050 M⁻¹ s⁻¹, respectively.
